This is an account of results in patent US20160046944, “APTAMER TO IL-17 AND USE THEREOF” (THE UNIVERSITY OF TOKYO, published 2016).

Holding throughout (details): chain copies: 2
For data set [1], the target named is T1, IL-17 (Homo sapiens, UniProt Q16552 Q16552:24-155).
T1 sequence: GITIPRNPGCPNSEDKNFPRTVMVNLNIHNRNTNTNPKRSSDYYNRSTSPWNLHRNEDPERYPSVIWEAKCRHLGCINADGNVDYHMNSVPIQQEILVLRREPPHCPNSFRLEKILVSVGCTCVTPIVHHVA
Briefly: cell_activity; NIH3T3 IL-6 release, human IL-17 + mouse TNFa, 37 C; 8.63 nM in Table 6. How it is done:
(§1) First, human IL-17 and the aptamer produced in Example 1-2 were pre-incubated at 37° C. for 30 min, and added to NIH3T3 cell (ATCC, CRL1658) together with mouse TNFα (2 ng/mL). Then, after incubation for 24 hr, the culture supernatant was collected, and the production amount of IL-6 was measured by ELISA method described below. The IL-17 inhibitory action of each aptamer was determined from the production amount of IL-6. For comparison with the aptamer of the present invention, a conventionally-known aptamer (aptamer No. 50) against IL-17 was used.
(§2) ELISA method for verifying IL-17 inhibitory action of aptamer: A microtiter plate for ELISA was coated with rat anti-mouse IL-6 antibody (BD Biosciences, 2 μg/mL; 100 μL/well) diluted with PBS, and incubated at 4° C. overnight. The next day, the microtiter plate was washed 3 times with PBS/0.05% Tween 20, and applied blocking with PBS/1% BSA (200 μL/well) at room temperature for 2 hr. Then, the plate was washed 3 times with PBS/0.05% Tween 20. Recombinant mouse IL-6 (BD Biosciences; 100 μL/well) serially diluted with PBS/1% BSA/0.05% Tween 20 or culture supernatants (100 μL/well) were added to the plate. […] After 15 min, aqueous sodium hydroxide solution (2N: 50 μL/well) was added to stop the reaction, and the plate was read on a microtiter reader (Bio-Rad) by using a 405 nm filter.

The target of data set [2] is T1, IL-17. Briefly: SPR; IL-17 150 nM, aptamer 12.5 or 50 nM. As for the experimental part:
Whether the synthesized aptamers inhibit the binding of IL-17 and IL-17 receptor was evaluated by the surface plasmon resonance method.
For the measurement, BIAcore T100 manufactured by GE Healthcare Bio Sciences was used. […] As an analyte, IL-17 (150 nM) and each aptamer (12.5 or 50 nM) shown by Table 3 were mixed, maintained for 15 min and after that the mixture was flown.
(In general: In SPR one partner is held on a chip, and binding of the other changes the refractive index at the surface.)

For data set [3], the target named is T1, IL-17. Briefly: cell_activity; NIH3T3 IL-6 release. How it is done:
as §1
ELISA method for verifying IL-17 inhibitory action of aptamer: A microtiter plate for ELISA was coated with rat anti-mouse IL-6 antibody (BD Biosciences, 2 μg/mL; 100 μL/well) diluted with PBS, and incubated at 4° C. overnight. The next day, the microtiter plate was washed 3 times with PBS/0.05% Tween 20, and applied blocking with PBS/1% BSA (200 μL/well) at room temperature for 2 hr. Then, the plate was washed 3 times with PBS/0.05% Tween 20. Recombinant mouse IL-6 (BD Biosciences; 100 μL/well) serially diluted with PBS/1% BSA/0.05% Tween 20 or culture supernatants (100 μL/well) were added to the plate. After incubation at room temperature for 2 hr, the plate was washed 3 times with PBS/0.05% Tween 20. Then, 100 μL/well of biotin conjugated rat anti-mouse IL-6 antibody (BD Biosciences) was added to the plate at final dilution of 1/500, and the mixture was reacted at room temperature for 1 hr. After washing 3 times with PBS/0.05% Tween 20, 100 μL/well of alkaline phosphatase conjugated streptavidin was added at final dilution of 1/1000. After 30 min at room temperature, the plate was again washed 4 times with PBS/0.05% Tween 20, and a substrate (1-Step PNPP; Thermo Fisher Scientific Inc; 100 μL/well) was added. After 15 min, aqueous sodium hydroxide solution (2N: 50 μL/well) was added to stop the reaction, and the plate was read on a microtiter reader (Bio-Rad) by using a 405 nm filter.

Data set [4] deals with T2, IL-17 (IL-17A) (Homo sapiens, UniProt Q16552 Q16552:24-155).
T2 sequence: T1 sequence
Briefly: cell_activity; IL-6 release (ELISA), NIH3T3. How it is done:
as §1, §2
On the technique in general: An ELISA detects its analyte on a solid surface through an enzyme-linked reagent.

The target in data set [5] is T2, IL-17 (IL-17A). Briefly: cell_activity; IL-6 release, NIH3T3, 37 C. As for the experimental part:
First, human IL-17 and the aptamer produced in Example 1-1 were pre-incubated at 37° C. for 30 min, and added to NIH3T3 cell (ATCC, CRL1658) together with mouse TNFα (2 ng/mL). Then, after incubation for 24 hr, the culture supernatant was collected, and the amount of IL-6 was measured by BD Cytometric Bead Array (BD Biosciences). The IL-17 inhibitory action of each aptamer was determined from the amount of IL-6. For comparison with the aptamer of the present invention, a conventionally-known aptamer (aptamer No. 50) against IL-17 was used.

Numbering of substitutions follows the chain as printed.

B1: aptamer No. 50 (ssRNA)
RNA: GGUCUAGCCGGAGGAGUCAGUAAUCGGUAGACC
modifications: 2'-F all U and C except none: ggu(F)c(F)u(F)agc(F)c(F)ggaggagu(F)c(F)agu(F)aau(F)c(F)ggu(F)agac(F)c(F)
The term IC50 denotes the concentration at which inhibition is half-maximal. Take B1: the IC50 in the data set with IL-17 [1] came to 7.36 nM.

B2: aptamer No. 55 (mixed)
mixed: GGGUAGCCGGAGGAGTCAGTGAUCGGUACCC
modifications: 2'-OMe (M), 2'-F (F), PS (S) as marked; uppercase DNA [2'-OMe: 1,2,3,4,7,8,10,13,14,23,24,25,26,28; 2'-F: 11,17,18,27; PS: 6]
Turning to B2, the binding signal with IL-17 [2] was 19 % IL-17/IL-17R binding remaining. The molecule also yielded an IC50 with IL-17 [3] of 0.11 nM.

B3: aptamer No. 52 (mixed)
mixed: B2 mixed with G21A
modifications: g(M)g(M)g(M)u(M)Ag(S)c(M)c(M)Gg(M)a(F)gg(M)a(M)g(S)Tc(F)a(F)gTa(M)a(M)u(M)c(M)g(M)g(M)u(F)a(M)CCC
Take B3: it took 1.11 nM to reach half-maximal inhibition with IL-17 (IL-17A) [4] (IC50).

B4: aptamer No. 74 (mixed)
mixed: B2 mixed with G21A
modifications: 2'-OMe (M), 2'-F (F) as marked; uppercase DNA [2'-OMe: 1-5,7,8,10,13,14,21-26,28-31; 2'-F: 11,17,18,27]
The molecule B4 registered an IC50 with IL-17 [3] of 1.06 nM.

B5: aptamer No. 88 (mixed)
RNA: B2 mixed with T16U, T20U
modifications: 2'-OMe (M), 2'-F (F), PS (S) as marked; uppercase DNA [2'-OMe: 1-5,7,8,10,11,13,14,17,22-26,28-31; 2'-F: 16,18,20,27; PS: 6,15,19; DNA: 9]
B5 displayed a half-inhibitory concentration (IC50) with IL-17 [3] of 2.88 nM.

B6: aptamer No. 26 (mixed)
mixed: B2 mixed with G21A, U27T
modifications: (M)=2'-OMe,(F)=2'-F,(S)=PS, lowercase RNA, uppercase DNA: g(M)g(M)g(M)u(M)Ag(S)c(M)c(M)Gg(M)Agg(M)a(M)gTc(F)agTaau(M)c(M)g(M)g(M)Ta(M)c(M)c(M)c(M)
Molecule B6 yielded an IC50 in the data set with IL-17 (IL-17A) [5] of 0.78 nM.
